# Numbering of substitutions follows the chain as printed.
# B1: 14R 18L 31S 73F 117E 72A (protein, listed as Rattus norvegicus)
# chain: AFDGTWKVDRNENREKFLEKMGINVVKRKLSAHDNLKLTITQEGNKFTVKESSNFRNIDVVFELGVDFAYSAFDGTELTGTWTMEGNKLVGKFKRVDNGKELIAVREISGNELIQTETYEGVEAKRIFKKE
# modifications: PEPTIDE (1)...(131) wild-type rat intestinal fatty acid binding protein
# B2: 18V 31V 73I 72A (protein, listed as Rattus norvegicus)
# chain: B1 chain with R14Y, L18V, S31V, F73I, E117Y
# modifications: PEPTIDE (1)...(131) wild-type rat intestinal fatty acid binding protein
# B3: 18I 31F 73V 72A (protein, listed as Rattus norvegicus)
# chain: B1 chain with R14Y, L18I, S31F, F73V, E117Y
# modifications: PEPTIDE (1)...(131) wild-type rat intestinal fatty acid binding protein
# B4: 14L 18L 73W 117S 72A (protein, listed as Rattus norvegicus)
# chain: B1 chain with R14L, S31G, F73W, E117S
# modifications: PEPTIDE (1)...(131) wild-type rat intestinal fatty acid binding protein
# B5: 14L 18L 31S 73W 117V 72A (protein, listed as Rattus norvegicus)
# chain: B1 chain with R14L, F73W, E117V
# modifications: PEPTIDE (1)...(131) wild-type rat intestinal fatty acid binding protein
# B6: 18I 31Y 73I 72A (protein, listed as Rattus norvegicus)
# chain: B1 chain with R14Y, L18I, S31Y, F73I, E117Y
# modifications: PEPTIDE (1)...(131) wild-type rat intestinal fatty acid binding protein
# B7: 18G 31F 73L 72A (protein, listed as Rattus norvegicus)
# chain: B1 chain with R14Y, L18G, S31F, F73L, E117Y
# modifications: PEPTIDE (1)...(131) wild-type rat intestinal fatty acid binding protein
# B8: 14Q 18S 73I 117W 72A (protein, listed as Rattus norvegicus)
# chain: B1 chain with R14Q, L18S, S31G, F73I, E117W
# modifications: PEPTIDE (1)...(131) wild-type rat intestinal fatty acid binding protein
# B9: 18I 31L 73G 72A (protein, listed as Rattus norvegicus)
# chain: B1 chain with R14Y, L18I, S31L, F73G, E117Y
# modifications: PEPTIDE (1)...(131) wild-type rat intestinal fatty acid binding protein
# B10: 18I 31L 72A (protein, listed as Rattus norvegicus)
# chain: B1 chain with R14Y, L18I, S31L, F73A, E117Y
# modifications: PEPTIDE (1)...(131) wild-type rat intestinal fatty acid binding protein
# B11: 14L 18L 31Y 73L 117A 72A (protein, listed as Rattus norvegicus)
# chain: B1 chain with R14L, S31Y, F73L, E117A
# modifications: PEPTIDE (1)...(131) wild-type rat intestinal fatty acid binding protein
# B12: 38W 106H 117A 72A (protein, listed as Rattus norvegicus)
# chain: B1 chain with R14Y, L18M, S31G, L38W, F73A, R106H, E117A
# modifications: PEPTIDE (1)...(131) wild-type rat intestinal fatty acid binding protein
# B13: 14L 31W 117V 72A (protein, listed as Rattus norvegicus)
# chain: B1 chain with R14L, L18M, S31W, F73A, E117V
# modifications: PEPTIDE (1)...(131) wild-type rat intestinal fatty acid binding protein
# B14: 38H 62W 106V 117A 72A (protein, listed as Rattus norvegicus)
# chain: B1 chain with R14Y, L18M, S31G, L38H, F62W, F73A, R106V, E117A
# modifications: PEPTIDE (1)...(131) wild-type rat intestinal fatty acid binding protein
# B15: 18V 31Y 55I 73G 72A (protein, listed as Rattus norvegicus)
# chain: B1 chain with R14Y, L18V, S31Y, F55I, F73G, E117Y
# modifications: PEPTIDE (1)...(131) wild-type rat intestinal fatty acid binding protein
# B16: 104T 115A 74F 72A (protein, listed as Rattus norvegicus)
# chain: B1 chain with R14Y, L18M, S31G, F73A, D74F, A104T, Q115A, E117Y
# modifications: PEPTIDE (1)...(131) wild-type rat intestinal fatty acid binding protein
# B17: 18I 55G 73M 72A (protein, listed as Rattus norvegicus)
# chain: B1 chain with R14Y, L18I, S31G, F55G, F73M, E117Y
# modifications: PEPTIDE (1)...(131) wild-type rat intestinal fatty acid binding protein
# B18: 14R 18L 73L 117D 72A (protein, listed as Rattus norvegicus)
# chain: B1 chain with S31G, F73L, E117D
# modifications: PEPTIDE (1)...(131) wild-type rat intestinal fatty acid binding protein
# B19: 72A 74N (protein, listed as Rattus norvegicus)
# chain: B1 chain with R14Y, L18M, S31G, F73A, D74N, E117Y
# modifications: PEPTIDE (1)...(131) wild-type rat intestinal fatty acid binding protein
# Experiment: Probe fluorescence ratio response to arachidonic acid relative to ADIFAB2
# Assay type: binding
# Settings: arachidonic acid; response relative to ADIFAB2
# Method in brief: (§1)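 Each fatty acid's response was expressed relative to ADIFAB2, the rI-FABP-L72A probe, as ΔR/ΔRreference. ΔR is the change in the background-corrected two-wavelength intensity ratio R=Fλ1/Fλ2 from its analyte-free baseline R0. Emission was read near about 420-480 nm for unbound and about 495-580 nm for FFA-bound probe.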
row,Molecule,DR/DR AA
1,B1,1.241
2,B2,0.863
3,B3,2.649
4,B4,1.010
5,B5,1.458
6,B6,2.487
7,B7,1.785
8,B8,0.878
9,B9,0.981
10,B10,1.054
11,B11,2.987
12,B12,1.326
13,B13,1.972
14,B14,2.007
15,B15,1.007
16,B16,2.635
17,B17,0.895
18,B18,1.029
19,B19,1.614

# Experiment: Probe fluorescence ratio response to linolenic acid relative to ADIFAB2
# Assay type: binding
# Settings: response relative to ADIFAB2
# Method in brief: as §1
row,Molecule,DR/DR LNA
1,B1,2.296
2,B2,1.531
3,B3,2.738
4,B4,1.499
5,B5,1.631
6,B6,2.865
7,B7,1.235
8,B8,0.894
9,B9,1.525
10,B10,1.384
11,B11,2.818
12,B12,1.397
13,B13,1.894
14,B14,1.796
15,B15,1.228
16,B16,2.206
17,B17,1.284
18,B18,1.790
19,B19,1.701

# Experiment: Probe fluorescence ratio response to linoleic acid relative to ADIFAB2
# Assay type: binding
# Settings: response relative to ADIFAB2
# Method in brief: as §1
row,Molecule,DR/DR LA
1,B1,1.947
2,B2,1.151
3,B3,3.096
4,B4,1.385
5,B5,1.569
6,B6,3.031
7,B7,1.520
8,B8,0.784
9,B9,1.146
10,B10,1.198
11,B11,2.948
12,B12,1.248
13,B13,2.027
14,B14,1.337
15,B15,1.220
16,B16,2.231
17,B17,1.127
18,B18,1.766
19,B19,1.681

# Experiment: Probe fluorescence ratio response to oleic acid relative to ADIFAB2
# Assay type: binding
# Settings: response relative to ADIFAB2
# Method in brief: as §1
row,Molecule,DR/DR OA
1,B1,1.146
2,B2,0.670
3,B3,2.257
4,B4,0.374
5,B5,1.208
6,B6,2.322
7,B7,1.365
8,B8,0.809
9,B9,0.595
10,B10,0.719
11,B11,1.908
12,B12,0.831
13,B13,1.580
14,B14,1.239
15,B15,0.994
16,B16,1.621
17,B17,0.574
18,B18,0.847
19,B19,1.629

# Experiment: Probe fluorescence ratio response to palmitic acid relative to ADIFAB2
# Assay type: binding
# Settings: response relative to ADIFAB2
# Method in brief: as §1
row,Molecule,DR/DR PA
1,B1,0.693
2,B2,1.302
3,B3,1.893
4,B4,0.259
5,B5,0.692
6,B6,1.825
7,B7,1.025
8,B8,0.559
9,B9,1.137
10,B10,1.182
11,B11,1.444
12,B12,0.426
13,B13,1.304
14,B14,1.002
15,B15,0.780
16,B16,0.720
17,B17,1.137
18,B18,0.294
19,B19,1.308

# Experiment: Probe fluorescence ratio response to palmitoleic acid relative to ADIFAB2
# Assay type: binding
# Settings: response relative to ADIFAB2
# Method in brief: as §1
row,Molecule,DR/DR POA
1,B1,1.290
2,B2,1.334
3,B3,2.665
4,B4,0.750
5,B5,1.356
6,B6,2.620
7,B7,1.235
8,B8,0.834
9,B9,1.377
10,B10,1.187
11,B11,2.317
12,B12,1.098
13,B13,1.768
14,B14,1.145
15,B15,1.106
16,B16,1.661
17,B17,1.201
18,B18,0.801
19,B19,1.536

# Experiment: Probe fluorescence ratio response to stearic acid relative to ADIFAB2
# Assay type: binding
# Settings: response relative to ADIFAB2
# Method in brief: as §1
row,Molecule,DR/DR SA
1,B1,0.378
2,B2,0.311
3,B3,1.294
4,B4,−0.005
5,B5,0.329
6,B6,1.310
7,B7,1.690
8,B8,−0.044
9,B9,0.267
10,B10,0.305
11,B11,0.762
12,B12,0.071
13,B13,0.742
14,B14,0.947
15,B15,−0.094
16,B16,0.877
17,B17,0.360
18,B18,0.213
19,B19,1.299
